We go through two molecules from patent US7235366 (dated 2007).

Substitutions are numbered along the chain they refer to. Positions of bridges follow the written chain, without caps; N, C: chain ends. No end group written: not given here.

Experiment [1] addresses T1, mouse delta opioid receptor (mORD1, msl-2) (Mus musculus).
T1 chain: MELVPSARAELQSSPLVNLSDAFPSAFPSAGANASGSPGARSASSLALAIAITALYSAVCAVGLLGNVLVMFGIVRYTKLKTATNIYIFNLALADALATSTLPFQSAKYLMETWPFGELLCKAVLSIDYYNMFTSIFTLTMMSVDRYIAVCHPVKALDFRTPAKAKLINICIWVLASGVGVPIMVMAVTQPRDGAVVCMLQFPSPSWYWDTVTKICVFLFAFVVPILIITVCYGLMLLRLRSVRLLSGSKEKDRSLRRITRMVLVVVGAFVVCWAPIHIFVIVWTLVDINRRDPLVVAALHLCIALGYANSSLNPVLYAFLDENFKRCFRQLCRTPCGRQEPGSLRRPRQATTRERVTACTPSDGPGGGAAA
The experiment in a line: competition.

The target of experiment [2] is T2, mouse kappa opioid receptor (mORK1, msl-1) (Mus musculus).
T2 chain: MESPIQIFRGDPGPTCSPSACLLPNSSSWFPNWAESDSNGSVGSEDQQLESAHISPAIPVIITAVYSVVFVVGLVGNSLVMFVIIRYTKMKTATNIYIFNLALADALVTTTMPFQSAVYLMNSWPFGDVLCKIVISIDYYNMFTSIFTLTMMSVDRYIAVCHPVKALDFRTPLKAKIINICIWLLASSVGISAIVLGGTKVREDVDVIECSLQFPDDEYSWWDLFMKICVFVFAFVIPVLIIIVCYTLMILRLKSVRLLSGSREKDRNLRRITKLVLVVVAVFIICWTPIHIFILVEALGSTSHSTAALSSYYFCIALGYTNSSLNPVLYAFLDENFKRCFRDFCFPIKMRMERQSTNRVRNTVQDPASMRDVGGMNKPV
The experiment in a line: competition.

For experiment [3], the target named is T1, mouse delta opioid receptor (mORD1, …). The experiment in a line: competition.
The next experiment concerns the target T3, rat mu opioid receptor (Rattus norvegicus, UniProt P33535).
T3 chain: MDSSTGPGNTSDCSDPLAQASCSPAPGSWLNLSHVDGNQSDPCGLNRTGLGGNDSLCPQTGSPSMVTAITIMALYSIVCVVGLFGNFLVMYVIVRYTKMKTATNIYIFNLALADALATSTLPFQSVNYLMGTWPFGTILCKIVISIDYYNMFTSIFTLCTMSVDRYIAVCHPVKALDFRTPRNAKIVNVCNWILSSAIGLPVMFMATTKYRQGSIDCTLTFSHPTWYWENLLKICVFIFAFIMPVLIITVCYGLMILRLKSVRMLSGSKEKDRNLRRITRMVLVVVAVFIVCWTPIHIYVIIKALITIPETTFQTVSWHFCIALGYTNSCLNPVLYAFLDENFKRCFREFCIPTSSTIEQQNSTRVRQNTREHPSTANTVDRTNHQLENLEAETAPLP
Briefly: competition.

Experiment [4] has as its target T4, delta opioid receptor D128N mutant (Mus musculus).
T4 chain: T1 chain with D128N
Briefly: other (direct radioligand binding).

The target in the next experiment is T5, MOP2 (Mus musculus).
T5 chain: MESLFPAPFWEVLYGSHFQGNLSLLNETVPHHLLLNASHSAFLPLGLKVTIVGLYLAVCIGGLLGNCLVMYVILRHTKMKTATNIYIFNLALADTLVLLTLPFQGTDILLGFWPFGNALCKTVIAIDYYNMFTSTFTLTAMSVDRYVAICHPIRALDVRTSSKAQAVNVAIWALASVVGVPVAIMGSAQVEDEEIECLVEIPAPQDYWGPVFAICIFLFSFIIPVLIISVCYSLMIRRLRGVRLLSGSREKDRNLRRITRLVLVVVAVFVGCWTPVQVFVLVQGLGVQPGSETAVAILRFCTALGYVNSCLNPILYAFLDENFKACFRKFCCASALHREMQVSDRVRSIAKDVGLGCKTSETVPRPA
Briefly: other (direct radioligand binding).

Usually IC50 stands for the midpoint of a concentration-inhibition curve. Low readings indicate greater potency in that assay, high ones weaker potency in that assay. For the molecule SANSNPAMAPRERKAGCKNFFWKTFTSC (disulfide 17-28 (inferred)) [SRIF], the IC50 in experiment [1] and in experiment [2] was > 1000 nM each time.

B1: beta-Endorphin (protein)
chain: WCLESSQCQDLTTESNLLECIRACKPDLSAETPMFPGNGDEQPLTENPRKYVMGHFRWDRFGRRNSSSSGSSGAGQKREDVSAGEDCGPLPEGGPEPRSDGAKPGPREGKRSYSMEHFRWGKPVGKKRRPVKVYPNGAEDESAEAFPLEFKRELTGQRLREGDGPDGPADDGAGAQADLEHSLLVAAEKKDEGPYRMEHFRWGSPPKDKRYGGFMTSEKSQTPLVTLFKNAIIKNAYKKGE
For orientation: Ki means the dissociation constant of the complex between target and ligand, obtained from inhibition or displacement. In the case of B1, the inhibition constant (Ki) (in experiment [3]; with rat mu opioid receptor) was 1 nM in each case. Further, the binding result (in experiment [4]; with MOP2) was “no binding” each time.
